Results: patent publication US20200024330A1

Legend:
Experiment in all cases: cell-based or functional assay
[1] = target: HIV-1 MGRM-C-008 Env (HIV-1)
[2] = target: HIV-1 Env of pseudovirus SC422661.8 (Acute), clade B (HIV-1)
[3] = target: HIV-1 MGRM-C-002 Env (HIV-1)
[4] = target: HIV-1 MGRM-F1-018 Env (pseudovirus) (HIV-1)
[5] = target: HIV-1 IAVI-C3 envelope protein (Env) on pseudovirus (HIV-1)
[6] = target: HIV-1 Env of isolate MGRM-D-019 (clade D) (HIV-1)
[7] = target: HIV-1 MGRM-A-013 envelope glycoprotein (Env) (HIV-1)
[8] = target: HIV-1 92RW024 envelope glycoprotein (Env) on pseudovirus (HIV-1)
[9] = target: HIV-1 APV-17 envelope protein (Env) on pseudovirus (HIV-1)
[10] = target: HIV-1 Env of isolate MGRM-G-028 (clade G pseudovirus) (HIV-1)
[11] = target: HIV-1 93IN905 envelope protein (Env) on pseudovirus (HIV-1)
[12] = target: HIV-1 93UG077 envelope protein (Env) on pseudovirus (HIV-1)
[13] = target: HIV-1 Env of isolate MGRM-D-029 (clade D) (HIV-1)
[14] = target: HIV-1 Env of isolate MGRM-G-015 (clade G pseudovirus) (HIV-1)
[15] = target: HIV-1 97ZA012 envelope glycoprotein (Env) on pseudovirus (HIV-1)
[16] = target: HIV-1 Env of pseudovirus JRCSF, clade B (HIV-1) (UniProt P20871)
[17] = target: HIV-1 Env of isolate APV-17 (pseudovirus) (HIV-1 isolate APV-17, subtype B)
[18] = target: HIV-1 Env of isolate MGRM-D-014 (HIV-1)
[19] = target: HIV-1 JR-CSF Env D167A (HIV-1 (isolate JR-CSF)) (UniProt P20871)
[20] = target: HIV-1 Env of isolate MGRM-D-021 (HIV-1)
[21] = target: HIV-1 Env of isolate MGRM-Chronic-B-003 (HIV-1)
[22] = target: HIV-1 Env of isolate 94UG103 (HIV-1)
[23] = target: HIV-1 Env of isolate MGRM-C-017 (HIV-1)
[24] = target: HIV-1 Env of isolate MGRM-G-025 (HIV-1)
[25] = target: HIV-1 Env of isolate MGRM-AE-007 (CRF01_AE), on pseudovirus (HIV-1)
[26] = target: HIV-1 Env of isolate MGRM-C-026 (HIV-1)
[27] = target: HIV-1 Env of isolate MGRM-D-024 (subtype D), on pseudovirus (HIV-1)
[28] = target: HIV-1 Env of isolate MGRM-D-029 (subtype D), on pseudovirus (HIV-1)
[29] = target: HIV-1 Env of isolate 98CN009 (HIV-1)
[30] = target: HIV-1 Env of isolate MGRM-D-011 (HIV-1)
[31] = target: HIV-1 Env of isolate MGRM-A-010 (clade A), on pseudovirus (HIV-1)
[32] = target: HIV-1 Env of isolate MGRM-D-028 (subtype D), on pseudovirus (HIV-1)
[33] = target: HIV-1 Env of isolate 93TH305 (pseudovirus) (HIV-1 isolate 93TH305, subtype B)
[34] = target: HIV-1 Env of isolate MGRM-F1-017 (subtype F), on pseudovirus (HIV-1)
[35] = target: HIV-1 JR-CSF Env R166A (HIV-1 (isolate JR-CSF)) (UniProt P20871)
[36] = target: HIV-1 Env of isolate MGRM-D-019 (HIV-1)
[37] = target: HIV-1 MGRM-C-027 envelope glycoprotein (Env) on pseudovirus (HIV-1)

1443_C16 (PG16) (TCN-116) (antibody), sequence (VH): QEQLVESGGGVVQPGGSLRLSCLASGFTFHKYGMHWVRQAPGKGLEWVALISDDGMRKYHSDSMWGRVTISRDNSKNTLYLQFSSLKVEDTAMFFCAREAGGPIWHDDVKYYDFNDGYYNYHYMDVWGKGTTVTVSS
1443_C16 (PG16) (TCN-116) (antibody), sequence (VL): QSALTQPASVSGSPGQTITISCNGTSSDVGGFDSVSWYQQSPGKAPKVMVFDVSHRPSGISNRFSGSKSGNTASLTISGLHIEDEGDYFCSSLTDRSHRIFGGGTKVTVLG

Substance: b12 (antibody)
- IC50 [1]: 1.51 µg/mL
- IC50 (µg/ml), pseudovirus neutralization [2]: 6.11 µg/mL
- IC50 [3]: > 50 µg/mL
- IC50 (µg/ml), pseudovirus neutralization [4]: > 50 µg/mL
- neutralization IC50 [5]: 5 µg/mL
- IC50 (µg/ml), pseudovirus neutralization [6]: > 50 µg/mL
- IC50 (µg/ml), pseudovirus neutralization [7]: 7.04 µg/mL
- IC50 (µg/ml), pseudovirus neutralization [8]: > 50 µg/mL
- neutralization IC50 [9]: > 25 µg/mL
- IC50 (µg/ml), pseudovirus neutralization [10]: > 50 µg/mL
- neutralization IC50 [11]: 34.1 µg/mL
- neutralization IC50 [12]: 41.1 µg/mL
- IC50 (µg/ml), pseudovirus neutralization [13]: > 50 µg/mL
- IC50 (µg/ml), pseudovirus neutralization [14]: > 50 µg/mL
- IC50 (µg/ml), pseudovirus neutralization [15]: > 50 µg/mL
- IC50 (µg/ml), pseudovirus neutralization [16]: 0.21 µg/mL

Substance: 4E10 (antibody)
- IC50 [1]: 2.97 µg/mL
- IC50 (µg/ml), pseudovirus neutralization [2]: 6.35 µg/mL
- IC50 [3]: 18.2 µg/mL
- IC50 (µg/ml), pseudovirus neutralization [4]: 3.6 µg/mL
- neutralization IC50 [5]: 5 µg/mL
- IC50 (µg/ml), pseudovirus neutralization [6]: 0.04 µg/mL
- IC50 (µg/ml), pseudovirus neutralization [7]: 1.46 µg/mL
- IC50 (µg/ml), pseudovirus neutralization [8]: 8.88 µg/mL
- neutralization IC50 [9]: 5.1 µg/mL
- IC50 (µg/ml), pseudovirus neutralization [10]: 6.32 µg/mL
- neutralization IC50 [11]: 1.55 µg/mL
- neutralization IC50 [12]: 11.2 µg/mL
- IC50 (µg/ml), pseudovirus neutralization [13]: 5.3 µg/mL
- IC50 (µg/ml), pseudovirus neutralization [14]: 1.07 µg/mL
- IC50 (µg/ml), pseudovirus neutralization [15]: 4.7 µg/mL
- IC50 (µg/ml), pseudovirus neutralization [16]: 3.3 µg/mL

Substance: 5343_B08 (PGT-135) (antibody)
- IC50 (µg/mL) neutralization [17]: > 50 µg/mL
- IC50 [18]: 2.21 µg/mL
- Fold IC50 increase relative to wild-type [19]: 0.7 fold
- IC50 [20]: > 50 µg/mL
- IC50 [21]: > 50 µg/mL
- neutralization IC50 [22]: > 50 µg/mL
- IC50 [23]: > 50 µg/mL
- IC50, pseudovirus neutralization [24]: 0.592 µg/mL
- IC50, single-round pseudovirus neutralization [25]: > 50 µg/mL
- IC50 [26]: 0.004 µg/mL
- IC50, pseudovirus neutralization [27]: > 50 µg/mL
- IC50, pseudovirus neutralization [28]: 30.8 µg/mL
- IC50 [29]: 0.071 µg/mL
- IC50 [30]: 23.5 µg/mL
- IC50, single-round pseudovirus neutralization [31]: > 50 µg/mL
- IC50, pseudovirus neutralization [32]: > 50 µg/mL
- IC50 (µg/mL) neutralization [33]: > 50 µg/mL
- IC50, pseudovirus neutralization [34]: 7.79 µg/mL
- Fold IC50 increase relative to wild-type [35]: 0.9 fold
- IC50 [36]: > 50 µg/mL

Substance: 2F5 (antibody)
- IC50 [1]: > 50 µg/mL
- IC50 (µg/ml), pseudovirus neutralization [2]: > 50 µg/mL
- IC50 [3]: 44.7 µg/mL
- IC50 (µg/ml), pseudovirus neutralization [4]: 3.91 µg/mL
- neutralization IC50 [5]: > 50 µg/mL
- IC50 (µg/ml), pseudovirus neutralization [6]: 0.14 µg/mL
- IC50 (µg/ml), pseudovirus neutralization [7]: 0.66 µg/mL
- IC50 (µg/ml), pseudovirus neutralization [8]: 8.22 µg/mL
- neutralization IC50 [9]: 2 µg/mL
- IC50 (µg/ml), pseudovirus neutralization [10]: 2.24 µg/mL
- neutralization IC50 [11]: > 50 µg/mL
- neutralization IC50 [12]: 4.45 µg/mL
- IC50 (µg/ml), pseudovirus neutralization [13]: > 50 µg/mL
- IC50 (µg/ml), pseudovirus neutralization [14]: 0.43 µg/mL
- IC50 (µg/ml), pseudovirus neutralization [15]: > 50 µg/mL
- IC50 (µg/ml), pseudovirus neutralization [16]: 1.85 µg/mL

Substance: 5147_N06 (PGT-130) (antibody)
- IC50 (µg/mL) neutralization [17]: 10.7 µg/mL
- IC50 [18]: 0.061 µg/mL
- IC50 (ug/ml), neutralizing activity [37]: 0.0052 µg/mL
- Fold IC50 increase relative to wild-type [19]: 1.2 fold
- IC50 [20]: 0.156 µg/mL
- IC50 [21]: > 50 µg/mL
- neutralization IC50 [22]: 1.4 µg/mL
- IC50 [23]: > 50 µg/mL
- IC50, pseudovirus neutralization [24]: 8.45 µg/mL
- IC50, single-round pseudovirus neutralization [25]: 0.083 µg/mL
- IC50 [26]: 0.036 µg/mL
- IC50, pseudovirus neutralization [27]: > 50 µg/mL
- IC50, pseudovirus neutralization [28]: > 50 µg/mL
- IC50 [29]: 0.136 µg/mL
- IC50 [30]: 0.019 µg/mL
- IC50, single-round pseudovirus neutralization [31]: 0.005 µg/mL
- IC50, pseudovirus neutralization [32]: 0.825 µg/mL
- IC50 (µg/mL) neutralization [33]: 0.021 µg/mL
- IC50, pseudovirus neutralization [34]: > 50 µg/mL
- Fold IC50 increase relative to wild-type [35]: 1.2 fold
- IC50 [36]: > 50 µg/mL

Substance: 1495_C14 (PGC14) (antibody)
- IC50 [1]: > 50 µg/mL
- IC50 (µg/ml), pseudovirus neutralization [2]: > 50 µg/mL
- IC50 [3]: > 50 µg/mL
- IC50 (µg/ml), pseudovirus neutralization [4]: > 50 µg/mL
- neutralization IC50 [5]: > 50 µg/mL
- IC50 (µg/ml), pseudovirus neutralization [6]: > 50 µg/mL
- IC50 (µg/ml), pseudovirus neutralization [7]: > 50 µg/mL
- IC50 (µg/ml), pseudovirus neutralization [8]: > 50 µg/mL
- neutralization IC50 [9]: > 50 µg/mL
- IC50 (µg/ml), pseudovirus neutralization [10]: > 50 µg/mL
- neutralization IC50 [11]: > 50 µg/mL
- neutralization IC50 [12]: > 50 µg/mL
- IC50 (µg/ml), pseudovirus neutralization [13]: > 50 µg/mL
- IC50 (µg/ml), pseudovirus neutralization [14]: > 50 µg/mL
- IC50 (µg/ml), pseudovirus neutralization [15]: > 50 µg/mL
- IC50 (µg/ml), pseudovirus neutralization [16]: 15 µg/mL

Substance: 1443_C16 (PG16) (TCN-116) (antibody)
- IC50 [1]: > 50 µg/mL
- IC50 (µg/ml), pseudovirus neutralization [2]: 1.13 µg/mL
- IC50 [3]: 28.3 µg/mL
- IC50 (µg/ml), pseudovirus neutralization [4]: 0.01 µg/mL
- neutralization IC50 [5]: 14.8 µg/mL
- IC50 (µg/ml), pseudovirus neutralization [6]: 0.01 µg/mL
- IC50 (µg/ml), pseudovirus neutralization [7]: 0.09 µg/mL
- IC50 (µg/ml), pseudovirus neutralization [8]: 0.08 µg/mL
- neutralization IC50 [9]: > 50 µg/mL
- IC50 (µg/ml), pseudovirus neutralization [10]: 3.09 µg/mL
- neutralization IC50 [11]: 0.102 µg/mL
- neutralization IC50 [12]: > 50 µg/mL
- IC50 (µg/ml), pseudovirus neutralization [13]: > 50 µg/mL
- IC50 (µg/ml), pseudovirus neutralization [14]: 5.33 µg/mL
- IC50 (µg/ml), pseudovirus neutralization [15]: 2.55 µg/mL
- IC50 (µg/ml), pseudovirus neutralization [16]: 0.001 µg/mL

Substance: 2G12 (antibody)
- IC50 [1]: > 50 µg/mL
- IC50 (µg/ml), pseudovirus neutralization [2]: 0.84 µg/mL
- IC50 [3]: > 50 µg/mL
- IC50 (µg/ml), pseudovirus neutralization [4]: > 50 µg/mL
- neutralization IC50 [5]: > 50 µg/mL
- IC50 (µg/ml), pseudovirus neutralization [6]: > 50 µg/mL
- IC50 (µg/ml), pseudovirus neutralization [7]: > 50 µg/mL
- IC50 (µg/ml), pseudovirus neutralization [8]: > 50 µg/mL
- neutralization IC50 [9]: > 50 µg/mL
- IC50 (µg/ml), pseudovirus neutralization [10]: 28.2 µg/mL
- neutralization IC50 [11]: > 50 µg/mL
- neutralization IC50 [12]: > 50 µg/mL
- IC50 (µg/ml), pseudovirus neutralization [13]: > 50 µg/mL
- IC50 (µg/ml), pseudovirus neutralization [14]: > 50 µg/mL
- IC50 (µg/ml), pseudovirus neutralization [15]: > 50 µg/mL
- IC50 (µg/ml), pseudovirus neutralization [16]: 0.37 µg/mL
